In patent US20260193293A1, “PEPTIDES CAPABLE OF INHIBITING PROTEIN-PROTEIN INTERACTIONS AT GABAB1A SUBUNIT AND USES THEREOF” (UNIVERSITY OF COPENHAGEN, priority 2022, published 2026):
Non-standard residues stand in square brackets, D forms with d. NMeT = CN[C@H](C(=O)O)[C@@H](C)O; NMeE = CN[C@@H](CCC(=O)O)C(=O)O; NMeD = CN[C@@H](CC(=O)O)C(=O)O; Sar = CNCC(=O)O

B1: …(N-Me-T)GDED (peptide)
peptide: Ac-ETEFIAWGP[NMeT]GDED-NH2
SMILES: CC[C@H](C)[C@H](NC(=O)[C@H](Cc1ccccc1)NC(=O)[C@H](CCC(=O)O)NC(=O)[C@@H](NC(=O)[C@H](CCC(=O)O)NC(C)=O)[C@@H](C)O)C(=O)N[C@@H](C)C(=O)N[C@@H](Cc1c[nH]c2ccccc12)C(=O)NCC(=O)N1CCC[C@H]1C(=O)N(C)[C@H](C(=O)NCC(=O)N[C@@H](CC(=O)O)C(=O)N[C@@H](CCC(=O)O)C(=O)N[C@@H](CC(=O)O)C(N)=O)[C@@H](C)O
B2: …(N-Me-G)DED (peptide)
peptide: Ac-ETEFIAWGPT[Sar]DED-NH2
SMILES: CC[C@H](C)[C@H](NC(=O)[C@H](Cc1ccccc1)NC(=O)[C@H](CCC(=O)O)NC(=O)[C@@H](NC(=O)[C@H](CCC(=O)O)NC(C)=O)[C@@H](C)O)C(=O)N[C@@H](C)C(=O)N[C@@H](Cc1c[nH]c2ccccc12)C(=O)NCC(=O)N1CCC[C@H]1C(=O)N[C@H](C(=O)N(C)CC(=O)N[C@@H](CC(=O)O)C(=O)N[C@@H](CCC(=O)O)C(=O)N[C@@H](CC(=O)O)C(N)=O)[C@@H](C)O
B3: peptide 38 (Ac-ETEFIAWG(N-Me-G)TGDED-NH2) (peptide)
peptide: Ac-ETEFIAWG[Sar]TGDED-NH2
SMILES: CC[C@H](C)[C@H](NC(=O)[C@H](Cc1ccccc1)NC(=O)[C@H](CCC(=O)O)NC(=O)[C@@H](NC(=O)[C@H](CCC(=O)O)NC(C)=O)[C@@H](C)O)C(=O)N[C@@H](C)C(=O)N[C@@H](Cc1c[nH]c2ccccc12)C(=O)NCC(=O)N(C)CC(=O)N[C@H](C(=O)NCC(=O)N[C@@H](CC(=O)O)C(=O)N[C@@H](CCC(=O)O)C(=O)N[C@@H](CC(=O)O)C(N)=O)[C@@H](C)O
B4: …(N-Me-E)D (peptide)
peptide: Ac-ETEFIAWGPTGD[NMeE]D-NH2
SMILES: CC[C@H](C)[C@H](NC(=O)[C@H](Cc1ccccc1)NC(=O)[C@H](CCC(=O)O)NC(=O)[C@@H](NC(=O)[C@H](CCC(=O)O)NC(C)=O)[C@@H](C)O)C(=O)N[C@@H](C)C(=O)N[C@@H](Cc1c[nH]c2ccccc12)C(=O)NCC(=O)N1CCC[C@H]1C(=O)N[C@H](C(=O)NCC(=O)N[C@@H](CC(=O)O)C(=O)N(C)[C@@H](CCC(=O)O)C(=O)N[C@@H](CC(=O)O)C(N)=O)[C@@H](C)O
B5: p… (peptide)
peptide: Ac-[dP]WAIVWGPTVSRED-NH2
SMILES: CC[C@H](C)[C@H](NC(=O)[C@H](C)NC(=O)[C@H](Cc1c[nH]c2ccccc12)NC(=O)[C@H]1CCCN1C(C)=O)C(=O)N[C@H](C(=O)N[C@@H](Cc1c[nH]c2ccccc12)C(=O)NCC(=O)N1CCC[C@H]1C(=O)N[C@H](C(=O)N[C@H](C(=O)N[C@@H](CO)C(=O)N[C@@H](CCCNC(=N)N)C(=O)N[C@@H](CCC(=O)O)C(=O)N[C@@H](CC(=O)O)C(N)=O)C(C)C)[C@@H](C)O)C(C)C
B6: …(N-Me-D)ED (peptide)
peptide: Ac-ETEFIAWGPTG[NMeD]ED-NH2
SMILES: CC[C@H](C)[C@H](NC(=O)[C@H](Cc1ccccc1)NC(=O)[C@H](CCC(=O)O)NC(=O)[C@@H](NC(=O)[C@H](CCC(=O)O)NC(C)=O)[C@@H](C)O)C(=O)N[C@@H](C)C(=O)N[C@@H](Cc1c[nH]c2ccccc12)C(=O)NCC(=O)N1CCC[C@H]1C(=O)N[C@H](C(=O)NCC(=O)N(C)[C@@H](CC(=O)O)C(=O)N[C@@H](CCC(=O)O)C(=O)N[C@@H](CC(=O)O)C(N)=O)[C@@H](C)O
B7: …(N-Me-D) (peptide)
peptide: Ac-ETEFIAWGPTGDE[NMeD]-NH2
SMILES: CC[C@H](C)[C@H](NC(=O)[C@H](Cc1ccccc1)NC(=O)[C@H](CCC(=O)O)NC(=O)[C@@H](NC(=O)[C@H](CCC(=O)O)NC(C)=O)[C@@H](C)O)C(=O)N[C@@H](C)C(=O)N[C@@H](Cc1c[nH]c2ccccc12)C(=O)NCC(=O)N1CCC[C@H]1C(=O)N[C@H](C(=O)NCC(=O)N[C@@H](CC(=O)O)C(=O)N[C@@H](CCC(=O)O)C(=O)N(C)[C@@H](CC(=O)O)C(N)=O)[C@@H](C)O

target: Sushi domains (SD1/2) protein of the GABAB1a (GB1a) subunit, recombinant; assay: FP competition
Sequence (Q9Z0U4 29-158): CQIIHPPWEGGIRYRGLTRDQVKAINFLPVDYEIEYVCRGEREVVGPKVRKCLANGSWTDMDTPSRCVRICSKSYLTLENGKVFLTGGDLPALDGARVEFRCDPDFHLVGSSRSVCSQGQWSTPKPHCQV

Binder | Ki
B1 | 77 nM
Ac-PWAIVWGP[dT]VSRED-NH2 [PWAIVWGPtVSRED] | 1300 nM
Ac-PW[dA]IVWGPTVSRED-NH2 [PWa…] | 14100 nM
Ac-PWAIVWGATVSRED-NH2 | 1500 nM
B2 | 132 nM
Ac-PWAIVWAPTVSRED-NH2 | 877 nM
B3 | 32 nM
Ac-PWAIVWGPTVSREA-NH2 | 572 nM
Ac-PWAIVWGPTVS[dR]ED-NH2 […rED] | 605 nM
Ac-PWAIVWGPT[dV]SRED-NH2 […vSRED] | 686 nM
B4 | 31 nM
Ac-PWAIVWGPAVSRED-NH2 | 1030 nM
Ac-PWAIVWG[dP]TVSRED-NH2 [PWAIVWGpTVSRED] | 6860 nM
B5 | 555 nM
Ac-PWAIVWGPTV[dS]RED-NH2 […sRED] | 552 nM
Ac-AWAIVWGPTVSRED-NH2 | 552 nM
Ac-PWAIVWGPTVARED-NH2 | 480 nM
Ac-PWAIVWGPTASRED-NH2 | 318 nM
Ac-P[dW]AIVWGPTVSRED-NH2 [Pw…] | 1230 nM
Ac-PWAAVWGPTVSRED-NH2 | 46600 nM
Ac-PAAIVWGPTVSRED-NH2 | 911 nM
B6 | 45 nM
Ac-PWAIVWGPTVSRAD-NH2 | 600 nM
B7 | 29 nM
Ac-PWAIVW[dA]PTVSRED-NH2 [PWAIVWaPTVSRED] | 18100 nM
Ac-PWAIVWGPTVSAED-NH2 | 341 nM
